From US20020115140A1

Target: GPA1 protein (yeast) (UniProt P08539)
Assay: cell-based or functional assay

Chain of UniProt P08539 (P08539 2-472 limits assumed): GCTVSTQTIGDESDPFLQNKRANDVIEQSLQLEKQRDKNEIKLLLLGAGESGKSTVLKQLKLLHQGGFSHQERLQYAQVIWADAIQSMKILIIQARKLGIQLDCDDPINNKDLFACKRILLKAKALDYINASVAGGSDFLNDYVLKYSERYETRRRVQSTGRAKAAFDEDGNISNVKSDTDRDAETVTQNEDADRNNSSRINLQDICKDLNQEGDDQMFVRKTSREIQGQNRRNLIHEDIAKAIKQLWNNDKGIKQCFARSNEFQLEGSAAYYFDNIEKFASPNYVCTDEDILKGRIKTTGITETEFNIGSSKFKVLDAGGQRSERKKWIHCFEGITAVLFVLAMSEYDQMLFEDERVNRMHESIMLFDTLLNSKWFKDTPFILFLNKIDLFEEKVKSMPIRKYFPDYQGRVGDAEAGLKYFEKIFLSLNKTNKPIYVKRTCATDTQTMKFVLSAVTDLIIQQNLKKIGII

diameter of growth inhibition zone; strain MY169 (sst2-, RATH1.1 under ADH2 promoter); 1 µg alpha factor: 0.8 cm
diameter of growth inhibition zone; strain MY169 (sst2-, RATH1.1 under ADH2 promoter); 10 µg alpha factor: 1.8 cm
diameter of growth inhibition zone; strain MY173 (SST2+, RATH1.1 under ADH2 promoter); 10 µg alpha factor: 1.6 cm
Substance: murine RATH1.1 gene product (from UniProt P97428 1-201)
